# Assay results from patent US20230322927A1 (Regeneron, published 2023).
# Experiments:
# [1] = biological target: T1, human EGFR on cells (human, UniProt P00533 25-1210); test: cell-based or functional assay
# [2] = biological target: T1, human EGFR on cells; test: flow cytometry titration on CASKI cells
# [3] = biological target: T2, hCD28.mFc (REGN2012) (human, UniProt P10747 19-152, limits assumed); test: SPR (Biacore) at 25 C; hCD28.mFc captured on anti-mFc, antibody injected
# T2 construct: also called Human CD28-mFc; hCD28 with a C-terminal mouse Fc tag; not shown: C-terminal mouse Fc tag
# [4] = biological target: human CD28 on cells (human, UniProt P10747 19-220); test: cell-based or functional assay
# [5] = biological target: T1, human EGFR on cells; test: flow cytometry titration on PEO1 cells
# Description: (§1) After incubation, the cells were washed twice with cold PBS containing 1% filtered FBS and a Fluorophore-conjugated anti-human secondary antibody was added to the cells and incubated for an additional 30 minutes. Live/dead dye was added to Human and Cynomolgus T cells incubations. Wells containing no antibody or secondary only were used as a control.
# (§2) After incubation with EGFR expressing cells, cells were washed, re-suspended in 200 μL cold PBS containing 1% filtered FBS and analyzed by flow cytometry on a BD FACS Canto II.
# [6] = biological target: T3, hEGFR(ECD).CPGG.MMH6 (REGN355) (human, UniProt P00533 25-647); test: SPR (Biacore) at 25 C; antibody captured on anti-hFc, hEGFR.mmH injected
# T3 construct: Soluble extracellular domain with a myc-myc-hexahistidine tag; also called hEGFR.mmH; hEGFR.mmh
# [7] = biological target: T3, hEGFR(ECD).CPGG.MMH6 (REGN355); test: SPR (Biacore) at 37 C; antibody captured on anti-hFc, hEGFR.mmH injected
# Description: SPR Kinetics Method: Kinetics binding parameters were determined via surface plasmon resonance (SPR) using a T-200 instrument and CM5 sensors (GE Healthcare). Double-referenced sensorgrams were globally fit to a 1:1 binding model using Scrubber (BioLogics Software). The dissociation rate constant (kd) was determined by fitting the change in the binding response during the dissociation phase, and the association rate constant (ka) was determined by fitting analyte binding at different concentrations. The KD was calculated from the ratio of the kd and ka.
# A six-point, three-fold dilution series of hEGFR.mmH starting at 30 nM was injected over this surface at a flow rate of 50 uL/min for 5 minutes. Surface was regenerated with a 10 second pulse of 20 mM H3PO4. Dissociation was measured for 10 minutes. Sensorgrams were processed and fit as described above.
# [8] = biological target: T2, hCD28.mFc (REGN2012); test: SPR (Biacore) at 37 C; hCD28.mFc captured on anti-mFc, antibody injected
# Description: SPR Kinetics Method: Kinetics binding parameters were determined via surface plasmon resonance (SPR) using a T-200 instrument and CM5 sensors (GE Healthcare). Double-referenced sensorgrams were globally fit to a 1:1 binding model using Scrubber (BioLogics Software). The dissociation rate constant (kd) was determined by fitting the change in the binding response during the dissociation phase, and the association rate constant (ka) was determined by fitting analyte binding at different concentrations. The KD was calculated from the ratio of the kd and ka. The dissociative half-life (t½) was calculated as In2/kd and converted to minutes.
# CD28 Capture Method Specifics: An anti-mFc polyclonal Ab (GE) was coupled to a CM5 sensor surface using traditional EDC/NHS coupling chemistry. ˜30RUs of hCD28.mFc were captured on this surface. […] Dissociation was measured for 5 minutes. Surface was regenerated with a 40 second injection of 10 mM glycine, pH 1.5. Sensorgrams were processed and fit as described above.
# [9] = biological target: T2, hCD28.mFc (REGN2012); test: SPR (Biacore T-200) at 25 C; hCD28.mFc captured on anti-mouse Fc, antibody injected
# Description: Equilibrium dissociation constants (KD values) for purified bispecific Abs binding to captured hCD28.mFc (REGN2012) were determined using a real-time surface plasmon resonance biosensor using a Biacore T-200 instrument. The CM5 Biacore sensor surface was derivatized by amine coupling with a polyclonal rabbit anti-moue Fc antibody (GE Healthcare, Cat #BR100838) to capture purified hCD28 with a C-terminal mouse Fc tag (hCD28.mFc, REGN2012). […] Association was monitored for 4 minutes, and the dissociation of bispecific Abs in HBS-EP was monitored for 10 minutes. All of the binding kinetics experiments were performed at 25° C. Kinetic association (kₐ) and dissociation (kd) rate constants were determined by fitting the real-time sensorgrams to a 1:1 binding model using Scrubber 2.0c curve fitting software. Binding dissociation equilibrium constants (KD) and dissociative half-lives (t½) were calculated from the kinetic rate constants as:
# [10] = biological target: T1, human EGFR on cells; test: flow cytometry titration on A375 cells
# Description: as §1, §2
# [11] = biological target: T3, hEGFR(ECD).CPGG.MMH6 (REGN355); test: SPR (Biacore 4000) at 25 C; antibody captured on anti-human Fc, hEGFR.mmH injected
# Description: Association was monitored for 5 minutes, and the dissociation of hEGFR.mmH in HBS-EP running buffer was monitored for 10 minutes. All of the binding kinetics experiments were performed at 25° C. Kinetic association (kₐ) and dissociation (kd) rate constants were determined by fitting the real-time sensorgrams to a 1:1 binding model using Scrubber 2.0c curve fitting software.
binder,measurement,setting,value
"mAb35193P2 (antibody, V domains shown) VH: EVQLVESGGGLVKPGGSLRLSCTASGFSFRDAWMTWVRQVPGKGLEWVGRIRNKIDGGTTDYNTPVKDRFTISRDDSKNTLYLQMNSLKTEDTAVYYCTTDIWNYVLFYYYGLDVWGQGTTVTVSS VL: not shown",EC50 [M] of increase of BaF3/hEGFR proliferation in presence of 0.5 nM hTGFβ,[1],9.14e-10 M
same,IC50 [M] of inhibition of BaF3/hEGFR proliferation in presence of 0.5 nM hEGF,[1],2.55e-09 M
same,Inhibition [%] of BaF3/hEGFR proliferation in presence of 0.5 nM hEGF,[1],29.6%
"mAb13006P2 (antibody, V domains shown) VH: QVQLQESGPGLVKPSETLSLTCTVSDDSIISYYWSWIRQPPGKGLEWIGYIYYSGRTNYNPSLKSRVTISVDTSKNQVSLKLNSVIAADTAVYYCARVSEDSYYHYGMDVWGQGTTVTVSS VL: not shown",IC50 [M] of inhibition of BaF3/hEGFR proliferation in presence of 0.5 nM hTGFβ,[1],6.55e-09 M
same,Inhibition [%] of BaF3/hEGFR proliferation in presence of 0.5 nM hEGF,[1],93.2%
same,Inhibition [%] of BaF3/hEGFR proliferation in presence of 0.5 nM hTGFβ,[1],97.2%
"mAb12999P2 (antibody, V domains shown) VH: QVQLQESGPGLVKPSETLSLTCTVSGDSIITFYWSWIRQPPGRGLEWIGYIYYSGITNYNPSLKSRVTISVDTSKNQVSLKLSSVTAADTAVYYCARVSEDSYFHYGMDVWGQGTTVTVSS VL: not shown",IC50 [M] of inhibition of BaF3/hEGFR proliferation in presence of 0.5 nM hEGF,[1],1.98e-08 M
same,IC50 [M] of inhibition of BaF3/hEGFR proliferation in presence of 0.5 nM hTGFβ,[1],7.79e-09 M
same,Inhibition [%] of BaF3/hEGFR proliferation in presence of 0.5 nM hEGF,[1],91.8%
same,Inhibition [%] of BaF3/hEGFR proliferation in presence of 0.5 nM hTGFβ,[1],95.9%
"REGN7075 (bispecific antibody, human IgG4 S228P, kappa, EGFR arm from mAb12999P2, CD28 arm from mAb14226; also called bsAb7075; H4sH24623D) heavy 1: QVQLQESGPGLVKPSETLSLTCTVSGDSIITFYWSWIRQPPGRGLEWIGYIYYSGITNYNPSLKSRVTISVDTSKNQVSLKLSSVTAADTAVYYCARVSEDSYFHYGMDVWGQGTTVTVSSASTKGPSVFPLAPCSRSTSESTAALGCLVKDYFPEPVTVSWNSGALTSGVHTFPAVLQSSGLYSLSSVVTVPSSSLGTKTYTCNVDHKPSNTKVDKRVESKYGPPCPPCPAPPVAGPSVFLFPPKPKDTLMISRTPEVTCVVVDVSQEDPEVQFNWYVDGVEVHNAKTKPREEQFNSTYRVVSVLTVLHQDWLNGKEYKCKVSNKGLPSSIEKTISKAKGQPREPQVYTLPPSQEEMTKNQVSLTCLVKGFYPSDIAVEWESNGQPENNYKTTPPVLDSDGSFFLYSRLTVDKSRWQEGNVFSCSVMHEALHNHYTQKSLSLSLGK heavy 2: QVQLQESGPGLVKPSETLSLTCTVSGGSISSYYWSWIRQPPGKGLEWIGYIYYSGITHYNPSLKSRVTISVDTSKIQFSLKLSSVTAADTAVYYCARWGVRRDYYYYGMDVWGQGTTVTVSSASTKGPSVFPLAPCSRSTSESTAALGCLVKDYFPEPVTVSWNSGALTSGVHTFPAVLQSSGLYSLSSVVTVPSSSLGTKTYTCNVDHKPSNTKVDKRVESKYGPPCPPCPAPPVAGPSVFLFPPKPKDTLMISRTPEVTCVVVDVSQEDPEVQFNWYVDGVEVHNAKTKPREEQFNSTYRVVSVLTVLHQDWLNGKEYKCKVSNKGLPSSIEKTISKAKGQPREPQVYTLPPSQEEMTKNQVSLTCLVKGFYPSDIAVEWESNGQPENNYKTTPPVLDSDGSFFLYSRLTVDKSRWQEGNVFSCSVMHEALHNRFTQKSLSLSPGK light: not shown",EC50,[2],2.05 nM
same,Inhibition [%] of BaF3/hEGFR proliferation in presence of 0.5 nM hEGF,[1],-6.8%
same,Inhibition [%] of BaF3/hEGFR proliferation in presence of 0.5 nM hTGFβ,[1],11.2%
same,Kd,[3],10.7 nM
same,koff,[3],0.00314 s⁻¹
same,kon,[3],294000 M⁻¹ s⁻¹
same,t½,[3],3.7 min
same,"IL-2 Release MAX (pg/mL), human CD3+ T cells + NCI-H292 cells, with 20 nM IsoC-1",[4],12.7 pg/mL
same,"IL-2 Release MAX (pg/mL), human CD3+ T cells + NCI-H292 cells, with 20 nM cemiplimab",[4],27.2 pg/mL
same,"Proliferation EC50 [M], human CD3+ T cells + NCI-H292 cells, with 20 nM IsoC-1",[4],3.92e-11 M
same,"Proliferation EC50 [M], human CD3+ T cells + NCI-H292 cells, with 20 nM cemiplimab",[4],2.16e-11 M
same,"Proliferation MAX (CPM), human CD3+ T cells + NCI-H292 cells, with 20 nM IsoC-1",[4],1880 CPM
same,"Proliferation MAX (CPM), human CD3+ T cells + NCI-H292 cells, with 20 nM cemiplimab",[4],3250 CPM
same,EC50,[5],1.22 nM
same,Kd,[6],2.8 nM
same,koff,[6],0.000433 s⁻¹
same,kon,[6],154000 M⁻¹ s⁻¹
same,t½,[6],26.7 min
same,Kd,[7],0.933 nM
same,koff,[7],0.000412 s⁻¹
same,kon,[7],441000 M⁻¹ s⁻¹
same,Kd,[8],51.7 nM
same,koff,[8],0.0131 s⁻¹
same,kon,[8],254000 M⁻¹ s⁻¹
same,t½,[8],0.9 min
"REGN6321 (bispecific antibody, human IgG4 S228P, kappa, also called bsAb6321; EGFRxCD28) heavy 1: EVQLVESGGGLVRPGGSLRLSCTASGFTFSTFIMFWVRQAPGKGLEYVSSISSNGGTIYYADSVKGRFTISRDNSKNTLYLQMGSLRAEDMAVYYCTRGGDFWSGYYPFDYWGQGTLVTVSSASTKGPSVFPLAPCSRSTSESTAALGCLVKDYFPEPVTVSWNSGALTSGVHTFPAVLQSSGLYSLSSVVTVPSSSLGTKTYTCNVDHKPSNTKVDKRVESKYGPPCPPCPAPPVAGPSVFLFPPKPKDTLMISRTPEVTCVVVDVSQEDPEVQFNWYVDGVEVHNAKTKPREEQFNSTYRVVSVLTVLHQDWLNGKEYKCKVSNKGLPSSIEKTISKAKGQPREPQVYTLPPSQEEMTKNQVSLTCLVKGFYPSDIAVEWESNGQPENNYKTTPPVLDSDGSFFLYSRLTVDKSRWQEGNVFSCSVMHEALHNHYTQKSLSLSLGK heavy 2: QVQLQESGPGLVKPSETLSLTCTVSGGSISSYYWSWIRQPPGKGLEWIGYIYYSGITHYNPSLKSRVTISVDTSKIQFSLKLSSVTAADTAVYYCARWGVRRDYYYYGMDVWGQGTTVTVSSASTKGPSVFPLAPCSRSTSESTAALGCLVKDYFPEPVTVSWNSGALTSGVHTFPAVLQSSGLYSLSSVVTVPSSSLGTKTYTCNVDHKPSNTKVDKRVESKYGPPCPPCPAPPVAGPSVFLFPPKPKDTLMISRTPEVTCVVVDVSQEDPEVQFNWYVDGVEVHNAKTKPREEQFNSTYRVVSVLTVLHQDWLNGKEYKCKVSNKGLPSSIEKTISKAKGQPREPQVYTLPPSQEEMTKNQVSLTCLVKGFYPSDIAVEWESNGQPENNYKTTPPVLDSDGSFFLYSRLTVDKSRWQEGNVFSCSVMHEALHNRFTQKSLSLSPGK light: not shown",EC50,[2],16.9 nM
same,Kd,[9],10.8 nM
same,koff,[9],0.00281 s⁻¹
same,kon,[9],259000 M⁻¹ s⁻¹
same,t½,[9],4.1 min
same,EC50,[10],5.42 nM
same,Kd,[11],0.634 nM
same,koff,[11],4.63e-05 s⁻¹
same,kon,[11],73000 M⁻¹ s⁻¹
same,t½,[11],249 min
